T1: mouse glutamate receptor A4 amino-terminal domain (mouse, UniProt Q9Z2W8 21-420)
T1 sequence (looked up): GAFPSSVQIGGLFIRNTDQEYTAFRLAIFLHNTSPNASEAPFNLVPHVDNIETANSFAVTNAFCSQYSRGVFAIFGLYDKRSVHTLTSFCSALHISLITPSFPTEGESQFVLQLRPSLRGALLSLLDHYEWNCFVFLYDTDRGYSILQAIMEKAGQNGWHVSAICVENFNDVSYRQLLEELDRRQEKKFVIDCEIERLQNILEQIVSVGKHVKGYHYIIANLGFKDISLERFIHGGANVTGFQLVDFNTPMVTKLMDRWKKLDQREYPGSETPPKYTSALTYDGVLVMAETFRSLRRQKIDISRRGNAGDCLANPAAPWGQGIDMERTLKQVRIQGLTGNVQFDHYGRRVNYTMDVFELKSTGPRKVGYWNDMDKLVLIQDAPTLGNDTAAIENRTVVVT

T2: human glutamate receptor D2 amino-terminal domain (human, UniProt O43424 24-440)
T2 sequence (looked up): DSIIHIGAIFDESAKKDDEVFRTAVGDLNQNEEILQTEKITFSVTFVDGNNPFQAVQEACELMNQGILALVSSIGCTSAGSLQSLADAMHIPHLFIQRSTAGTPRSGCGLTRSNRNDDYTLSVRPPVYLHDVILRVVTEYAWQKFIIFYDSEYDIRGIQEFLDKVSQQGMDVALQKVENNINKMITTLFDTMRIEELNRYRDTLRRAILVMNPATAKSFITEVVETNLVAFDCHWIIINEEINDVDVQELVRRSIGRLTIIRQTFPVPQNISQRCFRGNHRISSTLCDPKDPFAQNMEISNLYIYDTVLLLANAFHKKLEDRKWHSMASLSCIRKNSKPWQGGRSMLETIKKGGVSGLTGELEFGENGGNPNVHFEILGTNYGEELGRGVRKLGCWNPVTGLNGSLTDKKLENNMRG


Tests used:
[1] = molecular target: T1, mouse glutamate receptor A4 …; assay: SPR
[2] = molecular target: T2, human glutamate receptor D2 …; assay: SPR

Row | Kd [1] [µM] | Kd [2] [µM] | Binder
1 | 11 ± 0.9 | – | pentraxin domain of human neuronal pentraxin-1, biotinylated on a C-terminal Avitag (immobilised in SPR) (domain or fragment, UniProt Q15818 224-431, looked up, biotin on the Avitag (in vivo biotinylation by BirA)) PGDKFQLTFPLRTNYMYAKVKKSLPEMYAFTVCMWLKSSATPGVGTPFSYAVPGQANELVLIEWGNNPMEILINDKVAKLPFVINDGKWHHICVTWTTRDGVWEAYQDGTQGGSGENLAPYHPIKPQGVLVLGQEQDTLGGGFDATQAFVGELAHFNIWDRKLTPGEVYNLATCSTKALSGNVIAWAESHIEIYGGATKWTFEACRQI
2 | – | > 100 | Cbln1, biotinylated on a C-terminal Avitag (immobilised in SPR) (natural protein, UniProt P23435 22-193, looked up, biotin on the Avitag (in vivo biotinylation by BirA)) QNETEPIVLEGKCLVVCDSNPTSDPTGTALGISVRSGSAKVAFSAIRSTNHEPSEMSNRTMIIYFDQVLVNIGNNFDSERSTFIAPRKGIYSFNFHVVKVYNRQTIQVSLMLNGWPVISAFAGDQDVTREAASNGVLIQMEKGDRAYLKLERGNLMGGWKYSTFSGFLVFPL

— PMC7116145 (Science (New York, N.Y.), 2020)
